The supplement of paper PMC12764529
± gives the half width of the 95% confidence interval.

Experiments:
[1] = folding stability dG unfold from trypsin proteolysis; higher = more stable
How it was run: (§1)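 Unfolding free energy was derived, per protease or combined, by relating Bayesian-fitted K50 values from sequencing counts to a sequence-predicted unfolded-state K50 and a shared folded-state K50. The underlying digests exposed cysteine-free mini-proteins under 80 residues, in a PA-tagged cDNA display construct, to trypsin and chymotrypsin at 11 threefold-diluted concentrations and to a no-protease condition. A filter kept only designs with AlphaFold2 dimer inter-PAE above 15.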

[2] = folding stability dG unfold from chymotrypsin proteolysis; higher = more stable
How it was run: as §1

[3] = folding stability dG unfold (combined trypsin and chymotrypsin); higher = more stable
How it was run: as §1

Sequence	folding stability dG unfold [1]	folding stability dG unfold [2]	folding stability dG unfold [3]
SAGGSAGGSAWGWISFNFEFLMFNPDGMFMPFRMQIDIRVEVKPEPKPKPKPKRDPNGKWKSAGGSAGGSAG [r3_252_TrROS]	1.91 ± 0.034 kcal/mol	2.8 ± 0.082 kcal/mol	2.65 ± 0.15 kcal/mol
SKIKIKAKDKKTNIPIDEIDIYPLEDGSYGIKIIFTFPKEKKEITIPIPKNKKIEEFIKALGLEEIEIDASA [r9_492_TrMRF]	1 ± 0.1 kcal/mol	2.33 ± 0.13 kcal/mol	1.79 ± 0.23 kcal/mol
SAGGSAGGWREIKIYVPPGMPLEEIKDLIKEFFPGYKVEIDEIEREDNYVKATIRIQPLPPGDFSAGGSAGG [r6_623_TrROS]	3.08 ± 0.092 kcal/mol	2.81 ± 0.04 kcal/mol	2.96 ± 0.071 kcal/mol
SAGGSAGGFFHIEIEWRPVKLEDLPEEDAANGKELKPGDEIWVIVKIEIYPMPPPKFDKDGELNSAGGSAGG [r6_547_TrROS]	2.23 ± 0.19 kcal/mol	3.31 ± 0.23 kcal/mol	2.77 ± 0.2 kcal/mol
SAGGSAGGSAMKTLVIEGLSLEEIEELAKEIPGKTVRIVFKDGSVITIYPDGKIEIEPLPESAGGSAGGSAG [r3_269_TrROS_Hall]	1.75 ± 0.059 kcal/mol	2.64 ± 0.031 kcal/mol	2.37 ± 0.054 kcal/mol
SAGGSAGGSAGAANDPKKIPIHIFPPDGKPIFKVKIEVYDNGIKIKIEWHPSPDGLYPMISAGGSAGGSAGG [r11_874_TrROS]	1.9 ± 0.089 kcal/mol	1.98 ± 0.082 kcal/mol	1.99 ± 0.14 kcal/mol
SAGGSAGGSAGGSSMITVSTTSFPDGTRKVTITEPGTGKPLKTVDMPPSESVSAVKEKLSSAGGSAGGSAGG [r7_633_JUSTAS]	-0.012 ± 0.1 kcal/mol	-0.67 ± 0.2 kcal/mol	-0.245 ± 0.2 kcal/mol
SAGGMTAEEIAEALRERLRELFPPGAEIEVDEIEVEEVEVEEEPVELSEEERERVEKMPEEERERLLSAGGS [r16_272_TrROS_Hall]	1.27 ± 0.22 kcal/mol	-0.0968 ± 0.18 kcal/mol	0.635 ± 0.33 kcal/mol
SGKVKVKVEIPIPFRPPDGKWMMMNIWVEAEVPVTPEDLNNGKPRIRPEALDEAKDKVREWMRDIFGEPISA [r9_629_TrROS]	1.03 ± 0.052 kcal/mol	1.74 ± 0.11 kcal/mol	1.45 ± 0.13 kcal/mol
SAGGSMSESEVVEVTVGGKPVTITVHREDNRYSAEVTLPPGVRVVLPFGGPESPEKAVEEAVRALESAGGSA [r2_92_JUSTAS]	0.352 ± 0.036 kcal/mol	0.508 ± 0.046 kcal/mol	0.425 ± 0.065 kcal/mol
SAGGSAGGSAGGIEKFLEKHPELKIKKEIKIKIPYKTKDGKEFEVEYKIFYLTSEDEEDSAGGSAGGSAGGS [r10_0_TrMRF]	1.39 ± 0.05 kcal/mol	2.74 ± 0.057 kcal/mol	2.36 ± 0.07 kcal/mol
SAGGSAGGSAGGSMTTVTLPDAVSTNVTTTKLPDNTTKVDITTTFPDGSTRSSTITINPSAGGSAGGSAGGS [r4_452_JUSTAS]	-0.305 ± 0.049 kcal/mol	1.32 ± 0.05 kcal/mol	0.908 ± 0.07 kcal/mol
SAGGSAMVRLPDGTLVIDVKLPEDRPDAKVTVTVLEDGSPVGSVDVNTGKVTISVSPGVSVSITVESAGGSA [r15_180_JUSTAS]	2.12 ± 0.051 kcal/mol	1.53 ± 0.046 kcal/mol	1.79 ± 0.052 kcal/mol
SAGGSAGGSAGGSSLASDPTVPPDEPRTVTVLEPEPGGRLRVVTYEETPAGRRPVSALLSAGGSAGGSAGGS [r10_288_JUSTAS]	-0.782 ± 0.95 kcal/mol	1.09 ± 0.26 kcal/mol	0.336 ± 0.21 kcal/mol
SAGGSAGGSERWVKIWFPPGGTLEEASKMIEEWAQQLGLPITKIDEIEWDPGNGRVEITIRLKSAGGSAGGS [r12_131_TrROS]	1.93 ± 0.046 kcal/mol	2.013 ± 0.015 kcal/mol	2.02 ± 0.062 kcal/mol
SAGGLEIEVFNEKGEPVEVRLRRKEDDTLELEVRFRDASGREYRARATVRVKETEIELGEVDEWEELESAGG [r13_451_TrMRF]	2.19 ± 0.09 kcal/mol	1.84 ± 0.082 kcal/mol	2.21 ± 0.26 kcal/mol
SAGGMPPVVLEYEIDIKPDPNETLEDVLEKAEEFVEELKEAFPELDLKEVKVEVDPEKGKVKITVVFPSAGG [r13_1011_TrMRF]	1.77 ± 0.11 kcal/mol	1.95 ± 0.14 kcal/mol	1.92 ± 0.12 kcal/mol
SAFNIEIEEVDPNEIYIKIDATPEQLEEIAEDIMKNFPGYKVKWEWDDEQGKIWFRIRPVPPPPPEDQNSAG [r14_600_TrROS]	1.14 ± 0.1 kcal/mol	1.97 ± 0.13 kcal/mol	1.96 ± 0.29 kcal/mol
SAGGSAGGDYERDPNNGKMKMKPKVEPPPPPKIIQIQIPFPEEADDFMNELQDNGYPIYLSPGGSAGGSAGG [r6_872_TrROS]	1.29 ± 0.18 kcal/mol	0.179 ± 0.14 kcal/mol	0.745 ± 0.3 kcal/mol
SAGGSAGGSKKKVKVVKVEKPEGDYYVVTVYYEDGKLLKKVVFPKGVKPEEVLEKVKKLVEEESAGGSAGGS [r12_798_TrMRF]	1.95 ± 0.043 kcal/mol	2.82 ± 0.049 kcal/mol	2.51 ± 0.076 kcal/mol
SAGGSAGGGMKITEITIEKDPENPDTYTITIKVDGKTYTITVKKGETLYIFDKDGKLVLEIKVDSAGGSAGG [r6_920_TrROS_Hall]	4 ± 0.41 kcal/mol	5.24 ± 0.14 kcal/mol	5.1 ± 0.25 kcal/mol

Sequence	folding stability dG unfold [1]	folding stability dG unfold [2]	folding stability dG unfold [3]
SSMPLEEIVERVAEELGIPEEELERIESVDPGVVDPSPEGPTRVELRITLRDPHSDTTTEYRVEVEDPGGSA [r9_230_JUSTAS]	-0.784 ± 0.3 kcal/mol	-0.503 ± 0.46 kcal/mol	-0.501 ± 0.29 kcal/mol
SAGGSAGGSAGGKKTYVKKIVTEKKKVKLFFYDKKTGELLEEKEVEVIKTKIYVTKPDEFSAGGSAGGSAGG [r7_573_TrMRF]	0.479 ± 0.13 kcal/mol	0.884 ± 0.31 kcal/mol	0.868 ± 0.26 kcal/mol
SAGGAMPVELVETLEEIPGKGIVLRKFRDPLSDKWFLATVPVETLPNGEKKYLIELNIDGSGMTLELGSAGG [r13_993_JUSTAS]	0.0151 ± 0.099 kcal/mol	0.11 ± 0.22 kcal/mol	0.173 ± 0.17 kcal/mol
SAGGSAGGGMRIDDIDIKQDPGNPNRYKITIKFDGPPIEFTVPPGEPLPIRFPDGKPLFEIPIDSAGGSAGG [r6_922_TrROS]	0.312 ± 0.062 kcal/mol	0.486 ± 0.16 kcal/mol	0.479 ± 0.068 kcal/mol
SAGGSADTITIFFPGMPPEFAKEILEAILYEQGWKPKSVSTERHPEKGMHTIEVRFPNGRKITIMFSAGGSA [r15_958_TrROS]	2.18 ± 0.06 kcal/mol	3.1 ± 0.016 kcal/mol	2.75 ± 0.052 kcal/mol
SAGGSAGGSALDDFKIEEVQYDPDGNTIRFIFKFPGQVWILRIRMPKNGKMEIEWIPADDISAGGSAGGSAG [r3_167_TrROS]	3.96 ± 0.21 kcal/mol	4.36 ± 0.23 kcal/mol	4.36 ± 0.18 kcal/mol
SAMVVIPFPKDTPPEVALEAVRKAVREAAENGIVPEKIVVVAHPDLVFLVDSLVEAGIPLENVEFVPSESAG [r14_589_TrMRF]	2.87 ± 0.069 kcal/mol	2.86 ± 0.057 kcal/mol	2.88 ± 0.052 kcal/mol
SAGGMKLEIYLRFKTEEEAKKAVEELIRKLLEELGLEVEVEVVYDEETKEVYVKVTVTFPELPEEELSAGGS [r8_17_TrROS_Hall]	3.67 ± 0.19 kcal/mol	4.7 ± 0.29 kcal/mol	4.4 ± 0.39 kcal/mol
SAGGMGRARLYELEIEVDLHPDETIEGALRRLLGLREDEEILEVEAEVDPVNGKVRIRAVVLVRDPETSAGG [r13_828_TrMRF]	2.47 ± 0.087 kcal/mol	4.22 ± 0.032 kcal/mol	3.85 ± 0.081 kcal/mol
SAGGSAGGSAMPPDAKPVRTETDPATGTTTEYILYPDSDTTIRKTHLPDGSVQVEEFSVSKTSAGGSAGGSA [r18_521_JUSTAS]	-0.743 ± 0.15 kcal/mol	-0.491 ± 0.17 kcal/mol	-0.491 ± 0.29 kcal/mol
SAGGSAGGSKPIVAPVSVEDLTLEGLKALVDSHPEGEVPIFVTRSDGKPLVITVLPDGELSLDSAGGSAGGS [r12_1054_TrMRF]	0.17 ± 0.019 kcal/mol	-1.49 ± 0.31 kcal/mol	-0.318 ± 0.076 kcal/mol
SAGGVEREPTEEDLLVATAEFLIEVRDPDSDYPLVEPVPITLPFTSLEDLLEELRRLKAEVEEALASSAGGS [r16_624_TrMRF]	1.88 ± 0.092 kcal/mol	1.63 ± 0.073 kcal/mol	1.7 ± 0.14 kcal/mol
SAGGSAGSKPVTINWKITHPDGTPTTIPFSFPTEEQALEEALKAAEALAKEAGYPDFKIEIDEIIPSAGGSA [r15_698_TrMRF]	0.0851 ± 0.091 kcal/mol	0.47 ± 0.12 kcal/mol	0.358 ± 0.091 kcal/mol
SAGGSAGGSAGGSSSSTVPLPDDTTLTVHTGSSSYTVTTTSPDGTSTTTTVSPATVAAALSAGGSAGGSAGG [r11_1068_JUSTAS]	0.255 ± 0.022 kcal/mol	-0.0339 ± 0.1 kcal/mol	0.188 ± 0.077 kcal/mol
SAGGSAGGFKIPPGKTIMIQYPDGWMWRIKVKDGNTHMFKSPEEIEKLLNKPGFEIEIEWFPLDSAGGSAGG [r6_433_TrROS]	1.63 ± 0.083 kcal/mol	1.74 ± 0.24 kcal/mol	1.67 ± 0.19 kcal/mol
SAGGSAGGSAGGLAPAPDGSPVAVLLDDGRVVVFDPETAELYVAFVTPDSVRVVPLPLDLSAGGSAGGSAGG [r7_527_TrMRF]	-0.565 ± 0.071 kcal/mol	0.656 ± 0.038 kcal/mol	0.332 ± 0.053 kcal/mol
SAGGSAGGKKVYPIPGATPNQFRELLDENKGTLKIYMPNGKQEEFPIKPGMEPIPGGPAWIERKSAGGSAGG [r6_304_TrROS]	-0.834 ± 0.41 kcal/mol	-1.29 ± 0.85 kcal/mol	-0.871 ± 0.36 kcal/mol
SAGGSAKKTYIIKIPVKEIVVKDKKTGKYKPISAEELAKLLEEKTGLKVEIVEVKDGYIVIKVKEKSAGGSA [r15_55_TrROS_Hall]	2.26 ± 0.091 kcal/mol	2.96 ± 0.045 kcal/mol	2.74 ± 0.13 kcal/mol
SAGGSAGGSMIIIVKLPNGEELPIEVEGEEEAEKIAEEIVKALIEKGITPVSVEIRPIKPEEGSAGGSAGGS [r12_301_TrMRF]	3.13 ± 0.13 kcal/mol	2.28 ± 0.17 kcal/mol	2.97 ± 0.21 kcal/mol
SAGGSAGGLHPDEEFVVLFRIDVRARPVSPNAHPELKKKFPNAVIVEAKIDVLILPKEKVKELFSAGGSAGG [r6_830_TrMRF]	2.84 ± 0.1 kcal/mol	3.44 ± 0.082 kcal/mol	3.18 ± 0.19 kcal/mol
SAGGSAGGSAVPPDRPFTLPVLTLVRDPETGELYLARAEVTFLAPDPVITAARLEVFPPDADFSAGGSAGGS [r12_868_TrMRF]	0.761 ± 0.058 kcal/mol	1.69 ± 0.085 kcal/mol	1.34 ± 0.09 kcal/mol
